# In the supplement of paper PMC7877785:
# ± gives the uncertainty stated by the source.
# Assay: self-splicing fitness, log relative to wild type (ln ratio); higher = more splicing; Tetrahymena group I intron in knt gene, E. coli kanamycin selection, DiMSum; sequences stand for … in CUCUCU…GGAGGGAAAAGUUAUCAGGCAUGCACCUGGUAGCUAGUCUUUAAACCAAUAGAUUGCAUCGGUUUAAAAGGCAAGACCGUCAAAUUGCGGGAAAGGGGUCAACAGCCGUUCAGUACCAAGUCUCAGGGGAAACUUUGAGAUGGCCUUGCAAAGGGUAUGGUAAUAAGCUGACGGACAUGGUCCUAACCACGCAGCCAAGUCCUAAGUCAACAGAUCUUCUGUUGAUAUGGAUGCAGUUCACAGACUAAAUGUCGGUCGGGGAAGAUGUAUUCUUCUCAUAAGAUAUAGUCGGACCUCUCCUUAAUGGGAGCUAGCGGAUGAAGUGAUGCAACACUGGAGCCGCUGGGAACUAAUUUGUAUGCGAAAGUAUAUUGAUUAGUUUUGGAGUACUCGUGGUCG
# How it was run: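 Pooled colonies went to amplicon sequencing on an Illumina HiSeq 2500 after six replicate transformations. The plates were LB agar with 100 μg/mL carbenicillin, 50 μM IPTG and 0.2% rhamnose, with or without 25 μg/mL kanamycin, incubated overnight at 37°C or 30°C. The E. coli BL21(DE3) library had all eight P1ex-region intron nucleotides randomised, the intron placed in the knt kanamycin-resistance gene on pET-22b(+). DiMSum fitness is the error-weighted combination of replicate fold changes, kanamycin against none, normalised to wild type.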
Sequence,self-splicing fitness (ln) (30 °C),self-splicing fitness (ln) (37 °C)
GGAUAGCAAUAUUACGGAGU,-2.95 ± 0.34,-2.16 ± 0.42
GGAUAGCAAUAUUACGGAUU,-1.79 ± 0.12,-0.787 ± 0.12
GGAUAGCAAUAUUACGGCAG,–,-2.18 ± 0.22
GGAUAGCAAUAUUACGGUGG,-3.85 ± 0.18,-2.48 ± 0.14
GGAUAGCAAUAUUACGUACA,-1.42 ± 0.097,-0.395 ± 0.098
GGAUAGCAAUAUUACGUAUG,-1.66 ± 0.28,-0.951 ± 0.23
GGAUAGCAAUAUUACGUGAG,-1.33 ± 0.11,0.321 ± 0.1
GGAUAGCAAUAUUACGUGAU,-2.44 ± 0.06,-1.06 ± 0.074
GGAUAGCAAUAUUACGUUGU,-3.13 ± 0.2,-1.58 ± 0.15
GGCAAGCAAUAUUACGAAAC,-0.925 ± 0.13,-0.903 ± 0.16
GGCAAGCAAUAUUACGAGUU,-1.94 ± 0.081,-0.521 ± 0.088
GGCAAGCAAUAUUACGCGAC,-3.25 ± 0.23,-2.23 ± 0.27
GGCAAGCAAUAUUACGCGAU,-2.6 ± 0.25,-2.37 ± 0.24
GGCAAGCAAUAUUACGCGCC,–,-1.77 ± 0.28
GGCAAGCAAUAUUACGCGGA,-0.732 ± 0.095,-0.268 ± 0.094
GGCAAGCAAUAUUACGCGUA,-0.585 ± 0.065,-0.212 ± 0.076
GGCAAGCAAUAUUACGCUAG,-3.39 ± 0.24,-2.83 ± 0.37
GGCAAGCAAUAUUACGCUGU,-4.24 ± 0.23,-2.05 ± 0.2
GGCAAGCAAUAUUACGCUUU,-1.58 ± 0.12,-0.416 ± 0.12
GGCAAGCAAUAUUACGGAUG,-2.34 ± 0.15,-0.798 ± 0.15
GGCAAGCAAUAUUACGGCCC,-3.62 ± 0.36,-1.85 ± 0.3
GGCAAGCAAUAUUACGUAAC,-0.613 ± 0.064,-0.533 ± 0.089
GGCAAGCAAUAUUACGUUCA,-0.364 ± 0.092,0.553 ± 0.11
GGCAAGCAAUAUUACGUUUA,-1.29 ± 0.1,-0.0113 ± 0.11

Sequence,self-splicing fitness (ln) (30 °C),self-splicing fitness (ln) (37 °C)
GGCCAGCAAUAUUACGAAUG,-4.74 ± 0.39,-2.17 ± 0.22
GGCCAGCAAUAUUACGAAUU,-3.05 ± 0.19,-1.03 ± 0.11
GGCCAGCAAUAUUACGAGAA,–,-2.06 ± 0.36
GGCCAGCAAUAUUACGAGUG,-2.55 ± 0.11,-1.14 ± 0.093
GGCCAGCAAUAUUACGAUUG,-3.73 ± 0.2,-1.74 ± 0.16
GGCCAGCAAUAUUACGCAAA,-3.09 ± 0.24,-1.02 ± 0.12
GGCCAGCAAUAUUACGCAAU,-1.17 ± 0.098,-1.2 ± 0.09
GGCCAGCAAUAUUACGCAGA,-1.66 ± 0.082,-1.28 ± 0.08
GGCCAGCAAUAUUACGCAUC,-0.0388 ± 0.15,0.0683 ± 0.16
GGCCAGCAAUAUUACGCCUC,-0.497 ± 0.13,-0.06 ± 0.15
GGCCAGCAAUAUUACGCUUU,-0.464 ± 0.064,0.4 ± 0.087
GGCCAGCAAUAUUACGGCGG,-0.775 ± 0.1,-1.53 ± 0.15
GGCCAGCAAUAUUACGGGAG,-2.14 ± 0.13,-0.796 ± 0.12
GGCCAGCAAUAUUACGGUGU,-0.779 ± 0.058,-0.114 ± 0.07
GGCCAGCAAUAUUACGUAAG,-1.3 ± 0.084,-1.25 ± 0.15
GGCCAGCAAUAUUACGUACA,-2.75 ± 0.17,-1.71 ± 0.15
GGCCAGCAAUAUUACGUCGC,-1.17 ± 0.11,-0.0357 ± 0.11
GGCCAGCAAUAUUACGUGCU,-3.59 ± 0.15,-2.52 ± 0.2
GGCCAGCAAUAUUACGUUAA,-3.51 ± 0.29,-2.62 ± 0.19
GGCCAGCAAUAUUACGUUUU,-1.31 ± 0.065,-1.22 ± 0.079
GGCGAGCAAUAUUACGAAAC,-2.42 ± 0.15,-0.0615 ± 0.14
GGCGAGCAAUAUUACGAAUU,-1.66 ± 0.14,-0.459 ± 0.17
GGCGAGCAAUAUUACGACAC,-1.12 ± 0.19,-0.253 ± 0.26
GGCGAGCAAUAUUACGACCC,-3.18 ± 0.44,-1.25 ± 0.5
